From IntAct's records for PubMed 20639899

B1: E1B 55 kDa protein (Human adenovirus C serotype 5 (HAdV-5)), P03243-1 (parent)
chain: MERRNPSERGVPAGFSGHASVESGCETQESPATVVFRPPGDNTDGGAAAAAGGSQAAAAGAEPMEPESRPGPSGMNVVQVAELYPELRRILTITEDGQGLKGVKRERGACEATEEARNLAFSLMTRHRPECITFQQIKDNCANELDLLAQKYSIEQLTTYWLQPGDDFEEAIRVYAKVALRPDCKYKISKLVNIRNCCYISGNGAEVEIDTEDRVAFRCSMINMWPGVLGMDGVVIMNVRFTGPNFSGTVFLANTNLILHGVSFYGFNNTCVEAWTDVRVRGCAFYCCWKGVVCRPKSRASIKKCLFERCTLGILSEGNSRVRHNVASDCGCFMLVKSVAVIKHNMVCGNCEDRASQMLTCSDGNCHLLKTIHVASHSRKAWPVFEHNILTRCSLHLGNRRGVFLPYQCNLSHTKILLEPESMSKVNLNGVFDMTMKIWKVLRYDETRTRCRPCECGGKHIRNQPVMLDVTEELRPDHLVLACTRAEFGSSDEDTD

Variants of: B1
Conditions: with PML

Row | Variant | effect of a mutation on the interaction
1 | V103D | disrupting interaction
2 | K104R | disrupting interaction

Variants of: B1
Conditions: with pml_human PML

Row | Variant | effect of a mutation on the interaction
3 | K104R | disrupting interaction
